Results: patent publication EP4733393A1 (Todo, Tomoki, dated 2026)

Key:
human CTLA-4 [1] = molecular target: T1, human CTLA-4 (human, UniProt P16410 36-161); test: AlphaLISA Human CTLA-4/CD80 Binding Kit, inhibition of human CTLA-4/CD80 (B7-1) binding; concentration as human Fc (Fig. 7-3-1 B)
T1 sequence (looked up): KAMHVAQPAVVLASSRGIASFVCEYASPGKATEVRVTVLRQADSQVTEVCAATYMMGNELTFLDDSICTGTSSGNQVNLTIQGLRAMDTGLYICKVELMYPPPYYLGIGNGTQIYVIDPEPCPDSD

human CTLA-4 [2] = molecular target: T1, human CTLA-4; test: AlphaLISA Human CTLA-4/CD80 Binding Kit, inhibition of human CTLA-4/CD80 (B7-1) binding; concentration as human Fc (Fig. 7-3-2 B)
mouse PD-1 = molecular target: T2, mouse PD-1 (mouse, UniProt Q02242 25-167); test: AlphaLISA Mouse PD-1 and PD-L1 Binding Kit, inhibition of mouse PD-1/PD-L1 binding; concentration as human Fc (Fig. 1-3-1 B)
T2 sequence (looked up): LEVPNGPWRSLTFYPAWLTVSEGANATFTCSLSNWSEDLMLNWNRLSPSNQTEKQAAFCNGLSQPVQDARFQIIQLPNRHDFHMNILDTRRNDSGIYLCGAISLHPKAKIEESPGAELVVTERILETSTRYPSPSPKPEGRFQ

B1: anti-human CTLA4 antibody (derived from ipilimumab), expressed from the Ipi/SV-01 plasmid (antibody, human IgG1, kappa, V domains shown)
VH: QVQLVESGGGVVQPGRSLRLSCAASGFTFSSYTMHWVRQAPGKGLEWVTSISYDGNNKYYADSVKGRFTISRDNSKNTLYLQMNSLRAEDTAIYYCARTGWLGPFDYWGQGTLVTVSS
VL: not shown
notes: also called antibody encoded by T-Ipi
With B1 the IC50 (human CTLA-4 [1]) was 8.24 ng/mL.

B2: anti-human CTLA4 antibody (derived from ticilimumab), expressed from the Tic/SV-01 plasmid (antibody, human IgG2, kappa, V domains shown)
VH: QVQLVESGGGVVQPGRSLRLSCAASGFTFSSYGMHWVRQAPGKGLEWVAVIWYDGSNKYYADSVKGRFTISRDNSKNTLYLQMNSLRAEDTAVYYCARDPRGATLYYYYYGMDVWGQGTTVTVSS
VL: DIQMTQSPSSLSASVGDRVTITCRASQSINSYLDWYQQKPGKAPKLLIYAASSLQSGVPSRFSGSGSGTDFTLTISSLQPEDFATYYCQQYYSTPFTFGPGTKVEIKR
notes: also called antibody encoded by T-Tic; derived from ticilimumab (tremelimumab)
B2 was tested, and the IC50 (human CTLA-4 [2]) was 25.4 ng/mL.

B3: anti-mouse PD-1 antibody (derived from J43) with human IgG4 heavy chain constant region and human λ light chain constant region, expressed from the J43/SV-01 … (antibody, V domains shown)
VH: EVRLLESGGGLVKPEGSLKLSCVASGFTFSDYFMSWVRQAPGKGLEWVAHIYTKSYNYATYYSGSVKGRFTISRDDSRSMVYLQMNNLRTEDTATYYCTRDGSGYPSLDFWGQGTQVTVSS
VL: YELTQPPSASVVGETVKITCSGDQLPKYFADWFHQRSDQTILQVIYDDNKRPSGIPERISGSSSGTTATLTIRDVRAEDEGDYYCFSGYVDSDSKLYVFGSGTQLTVLG
notes: also called antibody encoded by T-J43
For B3, the IC50 (mouse PD-1) was 6.81 ng/mL.
